B1: B-cell CLL/lymphoma 9 protein (Homo sapiens), O00512 (parent)
chain: MHSSNPKVRSSPSGNTQSSPKSKQEVMVRPPTVMSPSGNPQLDSKFSNQGKQGGSASQSQPSPCDSKSGGHTPKALPGPGGSMGLKNGAGNGAKGKGKRERSISADSFDQRDPGTPNDDSDIKECNSADHIKSQDSQHTPHSMTPSNATAPRSSTPSHGQTTATEPTPAQKTPAKVVYVFSTEMANKAAEAVLKGQVETIVSFHIQNISNNKTERSTAPLNTQISALRNDPKPLPQQPPAPANQDQNSSQNTRLQPTPPIPAPAPKPAAPPRPLDRESPGVENKLIPSVGSPASSTPLPPDGTGPNSTPNNRAVTPVSQGSNSSSADPKAPPPPPVSSGEPPTLGENPDGLSQEQLEHRERSLQTLRDIQRMLFPDEKEFTGAQSGGPQQNPGVLDGPQKKPEGPIQAMMAQSQSLGKGPGPRTDVGAPFGPQGHRDVPFSPDEMVPPSMNSQSGTIGPDHLDHMTPEQIAWLKLQQEFYEEKRRKQEQVVVQQCSLQDMMVHQHGPRGVVRGPPPPYQMTPSEGWAPGGTEPFSDGINMPHSLPPRGMAPHPNMPGSQMRLPGFAGMINSEMEGPNVPNPASRPGLSGVSWPDDVPKIPDGRNFPPGQGIFSGPGRGERFPNPQGLSEEMFQQQLAEKQLGLPPGMAMEGIRPSMEMNRMIPGSQRHMEPGNNPIFPRIPVEGPLSPSRGDFPKGIPPQMGPGRELEFGMVPSGMKGDVNLNVNMGSNSQMIPQKMREAGAGPEEMLKLRPGGSDMLPAQQKMVPLPFGEHPQQEYGMGPRPFLPMSQGPGSNSGLRNLREPIGPDQRTNSRLSHMPPLPLNPSSNPTSLNTAPPVQRGLGRKPLDISVAGSQVHSPGINPLKSPTMHQVQSPMLGSPSGNLKSPQTPSQLAGMLAGPAAAASIKSPPVLGSAAASPVHLKSPSLPAPSPGWTSSPKPPLQSPGIPPNHKAPLTMASPAMLGNVESGGPPPPTASQPASVNIPGSLPSSTPYTMPPEPTLSQNPLSIMMSRMSKFAMPSSTPLYHDAIKTVASSDDDSPPARSPNLPSMNNMPGMGINTQNPRISGPNPVVPMPTLSPMGMTQPLSHSNQMPSPNAVGPNIPPHGVPMGPGLMSHNPIMGHGSQEPPMVPQGRMGFPQGFPPVQSPPQQVPFPHNGPSGGQGSFPGGMGFPGEGPLGRPSNLPQSSADAALCKPGGPGGPDSFTVLGNSMPSVFTDPDLQEVIRPGATGIPEFDLSRIIPSEKPSQTLQYFPRGEVPGRKQPQGPGPGFSHMQGMMGEQAPRMGLALPGMGGPGPVGTPDIPLGTAPSMPGHNPMRPPAFLQQGMMGPHHRMMSPAQSTMPGQPTLMSNPAAAVGMIPGKDRGPAGLYTHPGPVGSPGMMMSMQGMMGPQQNIMIPPQMRPRGMAADVGMGGFSQGPGNPGNMMF

Variants of: B1
Conditions: with ctnb1_human CTNNB1, P35222
Chain of ctnb1_human CTNNB1, P35222 (P35222 whole entry): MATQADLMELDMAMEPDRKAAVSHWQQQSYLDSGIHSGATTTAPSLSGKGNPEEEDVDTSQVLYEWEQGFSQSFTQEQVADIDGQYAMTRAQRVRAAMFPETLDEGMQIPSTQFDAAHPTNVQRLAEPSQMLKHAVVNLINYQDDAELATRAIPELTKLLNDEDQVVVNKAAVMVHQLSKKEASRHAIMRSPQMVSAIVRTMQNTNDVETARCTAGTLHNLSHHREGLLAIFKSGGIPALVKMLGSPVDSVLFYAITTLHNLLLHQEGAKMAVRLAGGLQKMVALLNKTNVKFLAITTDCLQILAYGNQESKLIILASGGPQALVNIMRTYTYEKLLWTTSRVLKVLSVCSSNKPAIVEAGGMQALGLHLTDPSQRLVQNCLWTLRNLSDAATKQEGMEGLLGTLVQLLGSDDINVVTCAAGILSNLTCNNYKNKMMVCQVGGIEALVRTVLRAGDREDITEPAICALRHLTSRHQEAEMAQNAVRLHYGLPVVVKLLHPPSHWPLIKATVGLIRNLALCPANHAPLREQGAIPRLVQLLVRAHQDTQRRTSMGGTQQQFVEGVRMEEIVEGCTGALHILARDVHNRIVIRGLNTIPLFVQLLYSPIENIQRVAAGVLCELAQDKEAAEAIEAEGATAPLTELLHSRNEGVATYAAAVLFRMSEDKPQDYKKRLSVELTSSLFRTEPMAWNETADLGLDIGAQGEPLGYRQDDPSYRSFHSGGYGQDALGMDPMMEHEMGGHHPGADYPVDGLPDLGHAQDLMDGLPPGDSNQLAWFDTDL

| Variant | effect of a mutation on the interaction |
| --- | --- |
| L366A | decreasing interaction |
| H358A | decreasing interaction |

Now from value to variant:

| effect of a mutation on the interaction | Variant |
| --- | --- |
| decreasing interaction | R359A |
| decreasing interaction | I369A |
